Measurements from paper PMC10192343, “Structural and functional analyses of the echinomycin resistance conferring protein Ecm16 from Streptomyces lasalocidi” (Scientific Reports, 2023).
Marks after values point to notes of the source that are not given here.

Columns and labels:
[1] = biological target: Ecm16* (Streptomyces lasalocidi (insertion domain from Streptomyces peucetius DrrC)) (UniProt Q0X0A9); test: fluorescence polarization; details: apparent KD, Hill fit, FP: 50 mM HEPES pH 7.5, 50 mM NaCl, 50 nM DNA, 4-512 nM protein, temperature not stated, EMSA: same buffer plus 0.1 mg/ml BSA
UvrA = biological target: T1, UvrA (Thermotoga maritima, UniProt Q9WYV0); test: ATPase, EnzChek phosphate assay (MESG/PNP, […] nm); type: biochemical; details: 1 µM echinomycin-DNA or DNA, 50 mM HEPES pH 7.5, 50 mM NaCl, 10 mM MgCl2, 22 °C
T1 construct: pET28a(+) construct, E. coli Rosetta (DE3) pLysS, His-Trap purified, no tag cleavage mentioned
T1 sequence (Q9WYV0 1-916): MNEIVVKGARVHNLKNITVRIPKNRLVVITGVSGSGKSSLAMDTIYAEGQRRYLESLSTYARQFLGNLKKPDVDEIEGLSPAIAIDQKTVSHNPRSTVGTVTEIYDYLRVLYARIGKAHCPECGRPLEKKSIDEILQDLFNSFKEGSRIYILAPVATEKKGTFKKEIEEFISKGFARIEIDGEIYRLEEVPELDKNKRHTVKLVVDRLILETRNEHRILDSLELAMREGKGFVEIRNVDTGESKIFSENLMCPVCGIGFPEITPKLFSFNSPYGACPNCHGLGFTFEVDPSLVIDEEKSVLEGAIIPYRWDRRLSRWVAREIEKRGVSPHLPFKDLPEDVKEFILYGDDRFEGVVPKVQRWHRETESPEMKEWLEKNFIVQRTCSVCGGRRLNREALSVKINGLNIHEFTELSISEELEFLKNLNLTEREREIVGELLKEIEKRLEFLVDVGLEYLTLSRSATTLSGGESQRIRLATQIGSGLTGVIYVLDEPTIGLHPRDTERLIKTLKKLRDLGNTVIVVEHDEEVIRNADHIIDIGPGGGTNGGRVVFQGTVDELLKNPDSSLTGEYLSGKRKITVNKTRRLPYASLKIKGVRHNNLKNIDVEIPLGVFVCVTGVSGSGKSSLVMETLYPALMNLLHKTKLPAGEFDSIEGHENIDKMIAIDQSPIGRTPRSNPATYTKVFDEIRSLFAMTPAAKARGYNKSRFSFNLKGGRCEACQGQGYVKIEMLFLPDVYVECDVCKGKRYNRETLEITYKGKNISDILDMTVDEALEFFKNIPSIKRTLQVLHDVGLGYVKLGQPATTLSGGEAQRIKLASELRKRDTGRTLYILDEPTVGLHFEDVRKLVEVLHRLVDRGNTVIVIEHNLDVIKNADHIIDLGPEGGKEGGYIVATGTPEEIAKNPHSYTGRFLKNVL

Ecm16 [2] = biological target: Ecm16 (Streptomyces lasalocidi, UniProt Q0X0A9); details: 1 µM echinomycin-DNA or DNA, 50 mM HEPES pH 7.5, 50 mM NaCl, 10 mM MgCl2, 22 °C
[3] = biological target: the molecule itself; test: crystal structure; hanging drop vapour diffusion at 18 °C; 8 mg/ml Ecm16, 10 mM MgCl2, 1 mM ADP mixed with 0.1 M MES pH 6.5, 0.2 M sodium thiocyanate, 12% PEG 20K; 2.0 Å; homodimer in the model
Ecm16 [4] = biological target: T2, Ecm16 (Streptomyces lasalocidi, UniProt Q0X0A9 1-792); test: fluorescence polarization; no echinomycin; apparent KD, Hill fit; FP: 50 mM HEPES pH 7.5, 50 mM NaCl, 50 nM DNA, 4-512 nM protein, temperature not stated; EMSA: same buffer plus 0.1 mg/ml BSA, 50 nM DNA, echinomycin:DNA 1.1:1, 15 min at room temperature, 6% native gel at 4 °C; details: protein: recombinant; tags: His (pET28a, Ni-NTA); chain copies: 2; label: 5'-FAM on both strands; blunt; self-complementary
T2 sequence: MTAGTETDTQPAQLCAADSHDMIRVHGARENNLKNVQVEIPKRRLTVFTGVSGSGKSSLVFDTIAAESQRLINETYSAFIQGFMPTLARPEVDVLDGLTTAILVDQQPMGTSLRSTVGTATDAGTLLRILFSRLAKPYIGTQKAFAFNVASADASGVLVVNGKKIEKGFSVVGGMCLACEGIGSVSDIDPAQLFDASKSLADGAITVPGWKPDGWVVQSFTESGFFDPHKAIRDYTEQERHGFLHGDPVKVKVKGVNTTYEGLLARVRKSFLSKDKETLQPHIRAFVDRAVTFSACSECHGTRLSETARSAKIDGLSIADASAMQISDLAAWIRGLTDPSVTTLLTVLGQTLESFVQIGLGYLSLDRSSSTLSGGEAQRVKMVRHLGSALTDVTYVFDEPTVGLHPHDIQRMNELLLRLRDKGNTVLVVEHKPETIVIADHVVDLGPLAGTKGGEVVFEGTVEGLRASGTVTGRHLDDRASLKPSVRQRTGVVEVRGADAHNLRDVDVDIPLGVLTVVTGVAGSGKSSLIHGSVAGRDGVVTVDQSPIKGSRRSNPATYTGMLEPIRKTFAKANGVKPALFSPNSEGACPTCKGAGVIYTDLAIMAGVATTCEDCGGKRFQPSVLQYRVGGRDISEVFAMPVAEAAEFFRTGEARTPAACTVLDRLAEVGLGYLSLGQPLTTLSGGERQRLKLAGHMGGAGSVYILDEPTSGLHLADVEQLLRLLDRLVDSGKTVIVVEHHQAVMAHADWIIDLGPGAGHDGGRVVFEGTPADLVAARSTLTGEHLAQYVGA

Ecm16 [5] = biological target: T2, Ecm16; test: fluorescence polarization; echinomycin-bound DNA; apparent KD, Hill fit; FP: 50 mM HEPES pH 7.5, 50 mM NaCl, 50 nM DNA, 4-512 nM protein, temperature not stated; EMSA: same buffer plus 0.1 mg/ml BSA, 50 nM DNA, echinomycin:DNA 1.1:1, 15 min at room temperature, 6% native gel at 4 °C; details: protein: recombinant; tags: His (pET28a, Ni-NTA); chain copies: 2; label: 5'-FAM on both strands; blunt; self-complementary

What does the source list for “AGTGATCAGTGGTTACGTAACCACTGATCACT (double strand) [FAM 32-bp DNA]”?
Kd ([1]; echinomycin-bound DNA): 37.7 nM; Kd ([1]; no echinomycin): 90.8 nM

How did the “ATPase, EnzChek phosphate assay (MESG/PNP, 360 nm)” value (UvrA) turn out when `Nc1ncnc2c1ncn2[C@@H]1O[C@H](COP(=O)(O)OP(=O)(O)OP(=O)(O)O)[C@@H](O)[C@H]1O` [ATP] was run?
The value was “Ecm16* and UvrA showed a similar basal ATPase activity for all four DNA substrates”.

What about the “ATPase, EnzChek phosphate assay (MESG/PNP, 360 nm)” value (Ecm16 [2]) of the same molecule?
The value was “we measured the ATP hydrolysis activity of Ecm16, Ecm16-ΔID, Ecm16*, and UvrA”.

B1: Ecm16 from Streptomyces lasalocidi (natural protein)
chain: T2 sequence
notes: Ecm16, UvrA-like self-resistance protein of the echinomycin biosynthetic gene cluster, Streptomyces lasalocidi (formerly S. lasaliensis); codon-optimised gene in pET28a(+) between NdeI and EcoRI; cloning by NdeI into pET28a(+) would put a His tag on the N-terminus (surmised); also called WT Ecm16; echinomycin resistance conferring protein Ecm16; source: E. coli BL21 (DE3), purified (Ni-NTA, …)
Which “stoichiometry N” value [3] does the source give for B1 here?
The value was 2.

B2: FAM 32-bp DNA (dsDNA)
DNA 1: AGTGATCAGTGGTTACGTAACCACTGATCACT
DNA 2: B2 DNA 1
What does the source list for B2?
Kd (Ecm16 [4]): 60.2 ± 2.1 nM; Kd (Ecm16 [5]): 11.8 ± 1.7 nM
